Experimental data taken from patent US6713269B2, “Methods for identifying potential therapeutic agents for treatment of osteoporosis using mitogenic indices” (co.don Aktiengesellschaft, priority 1995, dated 2004).

Tested on: human osteoblast precursor cells
Assay: Cell proliferation rate under the influence of growth factors, using bromodeoxyuridine incorporation (BrdU incorporation)
Type: cell-based
Conditions: for Absorbance mean value: 54 h incubation + 18 h BrdU labelling, OD at 405 nm
Method: 3,000 osteoblastic cells from fractions t1 to 2 up to the second passage, recovered from osteoporotic patients (OP cells), per well of a 96-well microwell plate were incubated in the presence of 10% FCS and 10% inactivated human control serum in a cell culture medium (α-MEM and HAM-S F12 medium […]) for 48 h, 120 h and 192 h. In parallel, 3,000 osteoblastic cells from non-osteoporotic patients were incubated under the same conditions. The number of intact cells was determined by means of trypan blue staining and counting in a counting chamber. 4. Determination of the cell proliferation rate under the influence of the three growth factors 1, 2 and 3 using bromodeoxyuridine incorporation (BrdU incorporation) Growth factor 1 =TGF-β2
Cells from fraction 1 and/or 2 of each punched-out bone piece up to the 2nd passage were used in the proliferation test.
3 ×10^3 cells from the first and/or second passage per well of a 96-well plate and 200 μl of medium were used.
The cells were cultivated for three days under the conditions previously described and subsequently cultivated further for one day in medium with no serum until subconfluence was reached.
Thereafter, the three growth factors 1, 2 and 3 were added to the cells at four different final concentrations (100, 10, 1, and 0.1 ng/ml medium).
Cells in a medium containing 10% FKS and in a medium containing 5% Ultroser served as controls.
Triplets were set up for all concentrations and controls.
Six wells including cells, to which no bromodeoxyuridine had been added during the proliferation test served as blank controls.
After 54 hours of incubation with the growth factors, the proliferation test (5-Bromo-2′-deoxyuridine Labeling and Detection Kit III by Boehringer Mannheim) was initiated by adding 20 μl of labelling solution diluted 1:90 in 1% BSA medium and subsequent incubation for 18 hours.
The proliferation test was conducted according to the manufacturer's instructions.
Evaluation of the proliferation test was effected by measuring the optical density (OD) at 405 nm in an ELISA reader. After 60 minutes of color development, the absorbance was measured 12 times at intervals of 5 minutes.

B1: TGF-β2: protein growth factor 1 tested for mitogenic effect on osteoblast cells (protein, UniProt P61812 303-414, looked up)
Transforming growth factor …: ALDAAYCFRNVQDNCCLRPLYIDFKRDLGWKWIHEPKGYNANFCAGACPYLWSSDTQHSRVLSLYNTINPEASASPCCVSQDLEPLTILYYIGKTPKIEQLSNMIVKSCKCS
Absorbance mean value (0.1 ng/ml medium): 0.150 | Absorbance mean value (1 ng/ml medium): 0.170 | Absorbance mean value (10 ng/ml medium): 0.190 | Absorbance mean value (100 ng/ml medium): 0.190 | mitogenic effect (stimulative capability of cell proliferation, dose-effect curves) (osteoblast cells from osteoporosis patients, FIG. 5): significant dose-dependent mitogenic effect
